In paper PMC7870927, “Mechanism of the small ATP-independent chaperone Spy is substrate specific” (Nature Communications, 2021):
Numbering of substitutions follows the chain as printed. Values joined by “and” are separate entries in the source; they are usually repeats but may differ in a detail not shown here. Equal entries are not always repeated.

T1: apoflavodoxin from Anabaena PCC 7119, wild type (Anabaena PCC 7119, UniProt P0A3E0 3-170)
T1 chain: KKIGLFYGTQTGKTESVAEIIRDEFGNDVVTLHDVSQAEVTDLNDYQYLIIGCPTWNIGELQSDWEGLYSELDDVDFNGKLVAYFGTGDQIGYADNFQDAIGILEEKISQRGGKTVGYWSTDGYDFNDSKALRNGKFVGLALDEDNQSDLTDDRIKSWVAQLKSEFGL

T2: apoflavodoxin from Anabaena PCC 7119, F98N mutant (Anabaena PCC 7119, UniProt P0A3E0 3-170, F98N)
T2 sequence: T1 chain with F97N

T3: apoflavodoxin from Anabaena PCC 7119, L105A I109A double mutant (Anabaena PCC 7119, UniProt P0A3E0 3-170, L105A | I109A)
T3 sequence: T1 chain with L104A, I108A

T4: apoflavodoxin from Anabaena PCC 7119, wild type (Anabaena PCC 7119, UniProt P0A3E0 3-170)
T4 construct: flavodoxin (apo form, without FMN) from Anabaena PCC 7119; gene codon-optimised, synthesised by GenScript; The same protein was used native and urea-denatured (5 M urea, then diluted: state U*); the assays tell the two apart; [U-2H,15N,13C]-labelled for the NMR titration; also called AnFld; AnFld WT; source: E. coli BL21 (DE3), purified (Ni-His Trap, ULP1 cleavage, HiTrap Q, Superdex 75; …)
T4 sequence: T1 chain

T5: apoflavodoxin from Anabaena PCC 7119, F98N mutant (Anabaena PCC 7119, UniProt P0A3E0 3-170, F98N)
T5 construct: also called AnFld F98N; I^T mimic; source: E. coli BL21 (DE3), purified (same protocol as AnFld WT); not shown: His6, N-terminal, cleaved; SUMO, N-terminal, cleaved
T5 sequence: T1 chain with F97N

T6: apoflavodoxin from Anabaena PCC 7119, L105A I109A double mutant (Anabaena PCC 7119, UniProt P0A3E0 3-170, L105A | I109A)
T6 construct: flavodoxin (apo form) from Anabaena PCC 7119 with the two destabilising mutations L105A and I109A; also called AnFld 2A; AnFld2A; source: E. coli BL21 (DE3), purified (same protocol as AnFld WT); not shown: His6, N-terminal, cleaved; SUMO, N-terminal, cleaved
T6 sequence: T1 chain with L104A, I108A

B1: Spy (small bacterial ATP-independent chaperone) (natural protein, UniProt P77754 24-161, looked up)
chain: ADTTTAAPADAKPMMHHKGKFGPHQDMMFKDLNLTDAQKQQIREIMKGQRDQMKRPPLEERRAMHDIIASDTFDKVKAEAQIAKMEEQRKANMLAHMETQNKIYNILTPEQKKQFNANFEKRLTERPAAKGKMPATAE
notes: chaperone Spy; Used and counted as a dimer throughout ('Spy dimer'); also called Spy dimer; SpyD; source: E. coli BL21 (DE3), purified (Ni-His Trap, ULP1 cleavage, HiTrap Q, HiLoad Superdex 75); not shown: His6, N-terminal, cleaved; SUMO, N-terminal, cleaved

Assays:
[1] = molecular target: Im7 (intermediate and unfolded states) (Escherichia coli) (UniProt Q03708); conditions: cited from earlier work
[2] = molecular target: Im7 (native) (Escherichia coli) (UniProt Q03708); conditions: cited from earlier work
Fyn SH3 (unfolded) SH3 = Fyn SH3 (unfolded) SH3 (UniProt P06241); conditions: cited from earlier work
Fyn SH3 (native) SH3 = Fyn SH3 (native) SH3 (UniProt P06241); conditions: cited from earlier work
[3] = molecular target: T1, apoflavodoxin from Anabaena PCC 7119, …; assay: ITC; 10 °C
[4] = molecular target: T2, apoflavodoxin from Anabaena PCC 7119, …; assay: ITC; 10 °C
[5] = molecular target: T3, apoflavodoxin from Anabaena PCC 7119, …; assay: ITC; first site (K1)
[6] = molecular target: T3, apoflavodoxin from Anabaena PCC 7119, …; assay: ITC; second site (K2)
[7] = molecular target: T1, apoflavodoxin from Anabaena PCC 7119, …; assay: initial fluorescence from kinetic fits
[8] = molecular target: T4, apoflavodoxin from Anabaena PCC 7119, …; assay: AUC; sedimentation velocity of Spy with AnFld or AzoFld, 48,000 r.p.m., absorbance at 280 nm; 2DSA, genetic algorithm, Monte Carlo; conditions: both partners purified
[9] = molecular target: T7, apoflavodoxin from Azotobacter vinelandii, C69A (Azotobacter vinelandii, UniProt P00324 1-180, C69A); assay: as above; conditions: both partners purified
T7 construct: flavodoxin (apo form) from Azotobacter vinelandii with C69A; The only AzoFld gene that the methods name is C69A; also called AzoFld; AzoFld C69A; source: E. coli BL21 (DE3), purified (same protocol as AnFld WT); not shown: His6, N-terminal, cleaved; SUMO, N-terminal, cleaved

[10] = molecular target: T5, apoflavodoxin from Anabaena PCC 7119, …; assay: ITC; 550 µM Spy dimer in the syringe, 50 µM AnFld F98N in the cell; 40 mM HEPES-KOH pH 7.5, 100 mM NaCl; 10 °C; one-site binding model; conditions: both partners purified
[11] = molecular target: T4, apoflavodoxin from Anabaena PCC 7119, …; assay: ITC; 550 µM Spy dimer in the syringe, 50 µM AnFld WT in the cell; 40 mM HEPES-KOH pH 7.5, 100 mM NaCl; MicroCal iTC200; temperature not shown; conditions: both partners purified
[12] = molecular target: T6, apoflavodoxin from Anabaena PCC 7119, …; assay: ITC + other: kinetic unfolding experiments; ITC: 1.2 mM Spy dimer in the syringe, 100 µM AnFld 2A in the cell; 40 mM HEPES-KOH pH 7.5, 100 mM NaCl; one-site or two-site models; two binding-competent conformations of AnFld 2A; conditions: both partners purified
[13] = molecular target: T4, apoflavodoxin from Anabaena PCC 7119, …; assay: other fluorescence titration; equilibrium titration of Spy dimer into 17.2 µM native AnFld WT (square hyperbola, one-site) or 10 µM AnFld 2A (quadratic tight-binding model) in HN buffer, 25 °C; intrinsic tryptophan fluorescence at 340 nm; apparent; conditions: both partners purified
[14] = molecular target: T6, apoflavodoxin from Anabaena PCC 7119, …; assay: as above; conditions: both partners purified
[15] = molecular target: T4, apoflavodoxin from Anabaena PCC 7119, …; assay: other fluorescence titration; stopped-flow refolding: AnFld denatured in 5 M urea diluted 11.5-fold (0.09 µM final) into HN buffer (40 mM HEPES-KOH pH 7.5, 100 mM NaCl) with Spy dimer, 25 °C; normalised initial tryptophan fluorescence against Spy dimer concentration, one-site binding model; non-native state U* of AnFld; conditions: both partners purified

T7 sequence (P00324 whole entry C70A): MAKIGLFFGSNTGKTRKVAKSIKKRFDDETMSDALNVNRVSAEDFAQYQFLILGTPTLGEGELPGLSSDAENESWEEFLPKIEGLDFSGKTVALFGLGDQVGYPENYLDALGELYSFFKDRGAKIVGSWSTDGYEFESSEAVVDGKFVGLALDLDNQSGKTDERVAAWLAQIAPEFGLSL
Sequence of Im7 (native) (Escherichia coli) (Q03708 whole entry): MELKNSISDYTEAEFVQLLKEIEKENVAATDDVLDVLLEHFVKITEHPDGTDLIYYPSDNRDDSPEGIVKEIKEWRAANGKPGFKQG
Sequence of Im7 (intermediate and unfolded states) (Escherichia coli) (Q03708 whole entry): as above
Sequence of Fyn SH3 (native) SH3 (P06241 82-143): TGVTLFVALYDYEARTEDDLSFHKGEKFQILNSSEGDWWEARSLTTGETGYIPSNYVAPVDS
Sequence of Fyn SH3 (unfolded) SH3 (P06241 82-143): as above

Molecule | Kd [1] [µM] | Kd [2] [µM] | Kd (Fyn SH3 (unfolded) SH3) [µM] | Kd (Fyn SH3 (native) SH3) [µM] | Ka [3] [M⁻¹] | Ka [4] [M⁻¹] | Ka [5] [M⁻¹] | Ka [6] [M⁻¹] | Kd [7] [µM] | stoichiometry N [8] [AnFld per Spy dimer] | stoichiometry N [9] [AzoFld per Spy dimer] | Kd [10] [µM] | Kd [11] [µM] | KD of one of two binding-competent conformations of AnFld 2A [12] | Kd [13] [µM] | Kd [14] [µM] | Kd [15] [µM]
Spy (from UniProt P77754) | 4.7 | 20.5 | 2.9 | 50 | – | – | – | – | – | – | – | – | – | – | – | – | –
B1 | – | – | – | – | 35500 | 801000 | 2.65e+06 | 4.37e+06 | 17.7 | 1 | 1 | 1.8 | 28.2 | 0.23 µM and 0.38 µM | 40 | 0.1 | 0.35
